Experimental data taken from publication PMC5102385, “Structure of a Spumaretrovirus Gag Central Domain Reveals an Ancient Retroviral Capsid” (PLoS Pathogens, 2016).

Columns and labels:
[1] = biological target: the molecule itself; assay: AUC; multi-speed sedimentation equilibrium at varying protein concentration, 20 mM Tris-HCl pH 8, 150 mM NaCl, 0.5 mM TCEP, interference data, global fit with SEDPHAT; monomer to dimer
[2] = biological target: the molecule itself; assay: as above; remark: listed apart in the source

B1: PFV-Gag CtDCEN (domain or fragment)
chain: RTHGTFPMHQLGNVIKGIVDQEGVATAYTLGMMLSGQNYQLVSGIIRGYLPGQAVVTALQQRLDQEIDNQTRAETFIQHLNAVYEILGLNARGQSIR
notes: Gag of Prototype foamy virus (PFV), residues 381-477 (CtDCEN), amplified from plasmid pcziGag4, in pET22b (NdeI/XhoI); also called PFV-CtDCEN; source: E. coli Rosetta 2 (DE3), purified (Ni-NTA, SEC on Superdex 75)
[1]
  Kd: 900 nM
[2]
  Ka: 1.1e+06 M⁻¹
  stoichiometry N: 2
